US20060105444

Experiments:
[1] = target: human Factor IX EGF domain (wild type) (UniProt P00740)
[2] = target: human Factor IX EGF domain mutant EGF.AA (UniProt P00740)
[3] = target: human Factor IX EGF domain mutant EGF.AG (UniProt P00740)
[4] = target: human Factor IX EGF domain mutant EGF.GA (UniProt P00740)
Chain of human Factor IX EGF domain mutant EGF.GA (P00740 other isoform, or with tags, fused parts or gaps mutant): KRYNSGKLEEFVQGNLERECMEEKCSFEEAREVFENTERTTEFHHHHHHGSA

Chain of human Factor IX EGF domain mutant EGF.AA (P00740 other isoform, or with tags, fused parts or gaps mutant): as above
Chain of human Factor IX EGF domain (wild type) (P00740 other isoform, or with tags, fused parts or gaps): as the sequence (P00740 other isoform, or with tags, fused parts or gaps mutant) above
Chain of human Factor IX EGF domain mutant EGF.AG (P00740 other isoform, or with tags, fused parts or gaps mutant): as above

In the case of “O-fucosyltransferase purified from CHO cells”, the Fucose (cpm) [1] was 12100 cpm, the Fucose (cpm) [2] was 1820 cpm and the “RP-HPLC with electrospray mass spectrometry of the fucosylation product” value [2] was “only one of the four differently folded species served as an acceptor substrate for the O-fucosyltransferase”. For the same substance, the Fucose (cpm) [3] was 4580 cpm and the Fucose (cpm) [4] was 6480 cpm.
